Values joined by “and” are separate entries in the source; they are usually repeats but may differ in a detail not shown here. Identical values can stand only once.
Tests used:
[1] = biological target: the molecule itself; assay: SEC; Superdex S200, 200 mM NaCl, 20 mM Tris pH 7.5; self-association of Robo1 ECD
[2] = biological target: the molecule itself; assay: SEC-MALS; Superdex S200 HR 10/30, 200 mM NaCl, 20 mM Tris pH 7.5; 55 ul of Robo1 ECDa at 2.5 mg/ml from peak 1 of the SEC
[3] = biological target: the molecule itself; assay: negative-stain EM reconstruction; GraFix-stabilised sample (fraction 12), ammonium molybdate stain, 100 kV; 3D map with D2 symmetry, 16 Å (FSC 0.143), filtered to 20 Å

B1: Robo1 ECDa (human Robo1 ectodomain, residues 61-853) (domain or fragment, UniProt Q9Y6N7-1 61-853, looked up)
chain: LRQEDFPPRIVEHPSDLIVSKGEPATLNCKAEGRPTPTIEWYKGGERVETDKDDPRSHRMLLPSGSLFFLRIVHGRKSRPDEGVYVCVARNYLGEAVSHNASLEVAILRDDFRQNPSDVMVAVGEPAVMECQPPRGHPEPTISWKKDGSPLDDKDERITIRGGKLMITYTRKSDAGKYVCVGTNMVGERESEVAELTVLERPSFVKRPSNLAVTVDDSAEFKCEARGDPVPTVRWRKDDGELPKSRYEIRDDHTLKIRKVTAGDMGSYTCVAENMVGKAEASATLTVQEPPHFVVKPRDQVVALGRTVTFQCEATGNPQPAIFWRREGSQNLLFSYQPPQSSSRFSVSQTGDLTITNVQRSDVGYYICQTLNVAGSIITKAYLEVTDVIADRPPPVIRQGPVNQTVAVDGTFVLSCVATGSPVPTILWRKDGVLVSTQDSRIKQLENGVLQIRYAKLGDTGRYTCIASTPSGEATWSAYIEVQEFGVPVQPPRPTDPNLIPSAPSKPEVTDVSRNTVTLSWQPNLNSGATPTSYIIEAFSHASGSSWQTVAENVKTETSAIKGLKPNAIYLFLVRAANAYGISDPSQISDPVKTQDVLPTSQGVDHKQVQRELGNAVLHLHNPTVLSSSSIEVHWTVDQQSQYIQGYKILYRPSGANHGESDWLVFEVRTPAKNSVVIPDLRKGVNYEIKARPFFNEFQGADSEIKFAKTLEEAPSAPPQGVTVSKNDGNGTAILVSWQPPPEDTQNGMVQEYKVWCLGNETRYHINKTVDGSTFSVVIPFLVPGIRYSVEVA
notes: Robo1, human, ectodomain construct ECDa, residues 61-853 of NP_002932; lacks the last beta-strand of Fn3; Cloned into a modified pTT3 vector that encodes a signal peptide and a C-terminal hexa-histidine tag; also called pTT3_Robo1_ECDa; source: HEK-293T, transient expression, secreted, purified (Ni-sepharose, SEC Superdex S200)
[1]
  stoichiometry N: 4 and 2
[2]
  stoichiometry N: 1

B2: Robo1 ECDb (human Robo1 whole ectodomain, residues 61-864) (domain or fragment, UniProt Q9Y6N7-1 61-864, looked up)
chain: LRQEDFPPRIVEHPSDLIVSKGEPATLNCKAEGRPTPTIEWYKGGERVETDKDDPRSHRMLLPSGSLFFLRIVHGRKSRPDEGVYVCVARNYLGEAVSHNASLEVAILRDDFRQNPSDVMVAVGEPAVMECQPPRGHPEPTISWKKDGSPLDDKDERITIRGGKLMITYTRKSDAGKYVCVGTNMVGERESEVAELTVLERPSFVKRPSNLAVTVDDSAEFKCEARGDPVPTVRWRKDDGELPKSRYEIRDDHTLKIRKVTAGDMGSYTCVAENMVGKAEASATLTVQEPPHFVVKPRDQVVALGRTVTFQCEATGNPQPAIFWRREGSQNLLFSYQPPQSSSRFSVSQTGDLTITNVQRSDVGYYICQTLNVAGSIITKAYLEVTDVIADRPPPVIRQGPVNQTVAVDGTFVLSCVATGSPVPTILWRKDGVLVSTQDSRIKQLENGVLQIRYAKLGDTGRYTCIASTPSGEATWSAYIEVQEFGVPVQPPRPTDPNLIPSAPSKPEVTDVSRNTVTLSWQPNLNSGATPTSYIIEAFSHASGSSWQTVAENVKTETSAIKGLKPNAIYLFLVRAANAYGISDPSQISDPVKTQDVLPTSQGVDHKQVQRELGNAVLHLHNPTVLSSSSIEVHWTVDQQSQYIQGYKILYRPSGANHGESDWLVFEVRTPAKNSVVIPDLRKGVNYEIKARPFFNEFQGADSEIKFAKTLEEAPSAPPQGVTVSKNDGNGTAILVSWQPPPEDTQNGMVQEYKVWCLGNETRYHINKTVDGSTFSVVIPFLVPGIRYSVEVAASTGAGSGVKS
notes: Robo1, human, whole ectodomain construct ECDb, residues 61-864 of NP_002932; Cloned into a modified pTT3 vector that encodes a signal peptide and a C-terminal hexa-histidine tag; also called pTT3_Robo1_ECDb; source: HEK-293T, transient expression, secreted, purified (Ni-sepharose, SEC Superdex S200)
[3]
  binding result: binds
